# Measurements from the supplement of paper PMC11246515.
# ± gives the standard deviation of the averaged measurements.
# Assay: total protein half-life in vivo (active degradation + dilution); higher = more stable protein
# [1] = wild type E. coli NCM3722, growth: C-lim chemostat, doubling time 3 h
# [2] = wild type E. coli NCM3722, growth: C-lim chemostat, doubling time 6 h
# [3] = wild type E. coli NCM3722, growth: C-lim chemostat, doubling time 12 h
# [4] = E. coli NCM3722 delta-clpP delta-lon delta-hslV, growth: N-lim chemostat, doubling time 6 h
# [5] = E. coli NCM3722 delta-hslV, growth: N-lim chemostat, doubling time 6 h
# [6] = E. coli NCM3722 delta-lon, growth: N-lim chemostat, doubling time 6 h
# [7] = E. coli NCM3722 delta-smpB, growth: N-lim chemostat, doubling time 6 h
# [8] = wild type E. coli NCM3722, growth: N-lim chemostat, doubling time 6 h
# [9] = wild type E. coli NCM3722, growth: P-lim chemostat, doubling time 6 h
# [10] = wild type E. coli NCM3722, growth: P-lim chemostat, doubling time 12 h
# [11] = E. coli NCM3722 delta-clpP, growth: N-lim chemostat, doubling time 6 h
# [12] = wild type E. coli NCM3722, growth: N-lim chemostat, doubling time 12 h
Sequence,total protein half-life in vivo [1],total protein half-life in vivo [2],total protein half-life in vivo [3],total protein half-life in vivo [4],total protein half-life in vivo [5],total protein half-life in vivo [6],total protein half-life in vivo [7],total protein half-life in vivo [8],total protein half-life in vivo [9],total protein half-life in vivo [10],total protein half-life in vivo [11],total protein half-life in vivo [12]
MLILLGYLVVLGTVFGGYLMTGGSLGALYQPAELVIIAGAGIGSFIVGNNGKAIKGTLKALPLLFRRSKYTKAMYMDLLALLYRLMAKSRQMGMFSLERDIENPRESEIFASYPRILADSVMLDFIVDYLRLIISGHMNTFEIEALMDEEIETHESEAEVPANSLALVGDSLPAFGIVAAVMGVVHALGSADRPAAELGALIAHAMVGTFLGILLAYGFISPLATVLRQKSAETSKMMQCVKVTLLSNLNGYAPPIAVEFGRKTLYSSERPSFIELEEHVRAVKNPQQQTTTEEA,1.32 ± 0.061 h,1.57 h,2.1 h,,,,,,,,,
MLINIGRLLMLCVWGFLILNLVHPFPRPLNIFVNVALIFTVLMHGMQLALLKSTLPKDGPQMTTAEKVRIFLFGVFELLAWQKKFKVKK,3.25 h,,,6.84 h,7.72 h,6.85 h,6.18 h,4.21 h,6.22 h,12.6 h,,
MLIPWQDLSPETLENLIESFVLREGTDYGEHERTLEQKVADVKRQLQCGEAVLVWSELHETVNIMPRSQFRE,,3.93 h,,5.2 h,,4.14 h,,,4.61 h,7.98 h,3.21 h,
MLIRVEIPIDAPGIDALLRRSFESDAEAKLVHDLREDGFLTLGLVATDDEGQVIGYVAFSPVDVQGEDLQWVGMAPLAVDEKYRGQGLARQLVYEGLDSLNEFGYAAVVTLGDPALYSRFGFELAAHHDLRCRWPGTESAFQVHRLADDALNGVTGLVEYHEHFNRF,3.02 ± 0.3 h,,9.91 ± 0.78 h,5.29 ± 0.2 h,4.22 ± 0.15 h,4.44 ± 0.37 h,3.73 ± 0.17 h,4.51 ± 0.72 h,5.72 ± 0.43 h,11.7 ± 0.65 h,4.46 ± 0.13 h,7.82 ± 0.18 h
MLKFILRRCLEAIPTLFILITISFFMMRLAPGSPFTGERTLPPEVMANIEAKYHLNDPIMTQYFSYLKQLAHGDFGPSFKYKDYSVNDLVASSFPVSAKLGAAAFFLAVILGVSAGVIAALKQNTKWDYTVMGLAMTGVVIPSFVVAPLLVMIFAIILHWLPGGGWNGGALKFMILPMVALSLAYIASIARITRGSMIEVLHSNFIRTARAKGLPMRRIILRHALKPALLPVLSYMGPAFVGIITGSMVIETIYGLPGIGQLFVNGALNRDYSLVLSLTILVGALTILFNAIVDVLYAVIDPKIRY [P0AFH2],2.81 ± 0.28 h,5.75 ± 0.39 h,13.4 ± 3.6 h,6.19 ± 0.36 h,6.31 ± 0.27 h,4.86 ± 1.2 h,5.88 ± 0.32 h,4.92 ± 1.4 h,5.69 ± 1.4 h,9.81 ± 1.4 h,6.06 ± 0.43 h,13.5 h
MLKFIQNNREITALLAVVLLFVLPGFLDRQYLSVQTLTMVYSSAQILILLAMGATLVMLTRNIDVSVGSITGMCAVLLGMLLNAGYSLPVACVATLLLGLLAGFFNGVLVAWLKIPAIVATLGTLGLYRGIMLLWTGGKWIEGLPAELKQLSAPLLLGVSAIGWLTIILVAFMAWLLAKTAFGRSFYATGDNLQGARQLGVRTEAIRIVAFSLNGCMAALAGIVFASQIGFIPNQTGTGLEMKAIAACVLGGISLLGGSGAIIGAVLGAWFLTQIDSVLVLLRIPAWWNDFIAGLVLLAVLVFDGRLRCALERNLRRQKYARFMTPPPSVKPASSGKKREAA,3.42 h,5.06 ± 1.6 h,7.51 ± 1.3 h,,,,,,,,,
MLKIIRAGMYTTVQDGGRHGFRQSGISHCGALDMPALRIANLLVGNDANAPALEITLGQLTVEFETDGWFALTGAGCEARLDDNAVWTGWRLPMKAGQRLTLKRPQHGMRSYLAVAGGIDVPPVMGSCSTDLKVGIGGLEGRLLKDGDRLPIGKSKRDSMEAQGVKQLLWGNRIRALPGPEYHEFDRASQDAFWRSPWQLSSQSNRMGYRLQGQILKRTTDRELLSHGLLPGVVQVPHNGQPIVLMNDAQTTGGYPRIACIIEADMYHLAQIPLGQPIHFVQCSLEEALKARQDQQRYFEQLAWRLHNEN,3.12 ± 0.1 h,5.73 ± 0.14 h,10.1 ± 0.82 h,5.37 ± 0.055 h,5.076 ± 0.012 h,5.07 ± 0.35 h,4.88 ± 0.36 h,5.25 ± 0.34 h,5.79 ± 0.12 h,11.26 ± 0.079 h,5.3 ± 0.29 h,8.94 ± 0.26 h
MLKLFSAFRKNKIWDFNGGIHPPEMKTQSNGTPLRQVPLAQRFVIPLKQHIGAEGELCVSVGDKVLRGQPLTRGRGKMLPVHAPTSGTVTAIAPHSTAHPSALAELSVIIDADGEDCWIPRDGWADYRTRSREELIERIHQFGVAGLGGAGFPTGVKLQGGGDKIETLIINAAECEPYITADDRLMQDCAAQVVEGIRILAHILQPREILIGIEDNKPQAISMLRAVLADSNDISLRVIPTKYPSGGAKQLTYILTGKQVPHGGRSSDIGVLMQNVGTAYAVKRAVIDGEPITERVVTLTGEAIARPGNVWARLGTPVRHLLNDAGFCPSADQMVIMGGPLMGFTLPWLDVPVVKITNCLLAPSANELGEPQEEQSCIRCSACADACPADLLPQQLYWFSKGQQHDKATTHNIADCIECGACAWVCPSNIPLVQYFRQEKAEIAAIRQEEKRAAEAKARFEARQARLEREKAARLERHKSAAVQPAAKDKDAIAAALARVKEKQAQATQPIVIKAGERPDNSAIIAAREARKAQARAKQAELQQTNDAATVADPRKTAVEAAIARAKARKLEQQQANAEPEQQVDPRKAAVEAAIARAKARKLEQQQANAEPEEQVDPRKAAVEAAIARAKARKLEQQQANAEPEQQVDPRKAAVEAAIARAKARKREQQPANAEPEEQVDPRKAAVEAAIARAKARKLEQQQANAVPEEQVDPRKAAVAAAIARAQAKKAAQQKVVNED,1.3 ± 0.13 h,1.31 ± 0.069 h,1.76 h,5.65 ± 0.73 h,,> 8 h,1.01 ± 0.033 h,1.16 h,1.8 ± 0.14 h,2.72 ± 0.58 h,2.67 ± 0.51 h,
MLKQVEIFTDGSCLGNPGPGGYGAILRYRGREKTFSAGYTRTTNNRMELMAAIVALEALKEHCEVILSTDSQYVRQGITQWIHNWKKRGWKTADKKPVKNVDLWQRLDAALGQHQIKWEWVKGHAGHPENERCDELARAAAMNPTLEDTGYQVEV [P0A7Y4],,5.92 ± 0.082 h,9.26 h,,,,,4.7 ± 0.96 h,6.5 ± 0.82 h,,6.46 ± 0.89 h,
MLKRCLSPLTLVNQVALIVLLSTAIGLAGMAVSGWLVQGVQGSAHAINKAGSLRMQSYRLLAAVPLSEKDKPLIKEMEQTAFSAELTRAAERDGQLAQLQGLQDYWRNELIPALMRAQNRETVSADVSQFVAGLDQLVSGFDRTTEMRIETVVLVHRVMAVFMALLLVFTIIWLRARLLQPWRQLLAMASAVSHRDFTQRANISGRNEMAMLGTALNNMSAELAESYAVLEQRVQEKTAGLEHKNQILSFLWQANRRLHSRAPLCERLSPVLNGLQNLTLLRDIELRVYDTDDEENHQEFTCQPDMTCDDKGCQLCPRGVLPVGDRGTTLKWRLADSHTQYGILLATLPQGRHLSHDQQQLVDTLVEQLTATLALDRHQERQQQLIVMEERATIARELHDSIAQSLSCMKMQVSCLQMQGDALPESSRELLSQIRNELNASWAQLRELLTTFRLQLTEPGLRPALEASCEEYSAKFGFPVKLDYQLPPRLVPSHQAIHLLQIAREALSNALKHSQASEVVVTVAQNDNQVKLTVQDNGCGVPENAIRSNHYGMIIMRDRAQSLRGDCRVRRRESGGTEVVVTFIPEKTFTDVQGDTHE [P0AFA2],3.11 ± 0.058 h,5.44 ± 0.39 h,10.9 ± 0.31 h,6.01 ± 0.078 h,,5.32 ± 0.25 h,5.44 ± 0.34 h,5.65 ± 0.069 h,6.05 ± 0.12 h,11 ± 1.5 h,6.25 ± 0.066 h,11.1 ± 0.78 h
MLKREMNIADYDAELWQAMEQEKVRQEEHIELIASENYTSPRVMQAQGSQLTNKYAEGYPGKRYYGGCEYVDIVEQLAIDRAKELFGADYANVQPHSGSQANFAVYTALLEPGDTVLGMNLAHGGHLTHGSPVNFSGKLYNIVPYGIDATGHIDYADLEKQAKEHKPKMIIGGFSAYSGVVDWAKMREIADSIGAYLFVDMAHVAGLVAAGVYPNPVPHAHVVTTTTHKTLAGPRGGLILAKGGSEELYKKLNSAVFPGGQGGPLMHVIAGKAVALKEAMEPEFKTYQQQVAKNAKAMVEVFLERGYKVVSGGTDNHLFLVDLVDKNLTGKEADAALGRANITVNKNSVPNDPKSPFVTSGIRVGTPAITRRGFKEAEAKELAGWMCDVLDSINDEAVIERIKGKVLDICARYPVYA [P0A825],3.22 ± 0.18 h,5.51 ± 0.18 h,10.7 ± 2.1 h,4.68 ± 1 h,3.87 ± 0.15 h,4.35 ± 0.27 h,3.8 ± 0.26 h,3.814 ± 0.011 h,5.73 ± 0.5 h,11.3 ± 0.74 h,3.83 ± 0.091 h,5.98 ± 0.077 h
MLKRLLKRPSLNLLAWLLLAAFYISICLNIAFFKQVLQALPLDSLHNVLVFLSMPVVAFSVINIVLTLSSFLWLNRPLACLFILVGAAAQYFIMTYGIVIDRSMIANIIDTTPAESYALMTPQMLLTLGFSGVLAALIACWIKIKPATSRLRSVLFRGANILVSVLLILLVAALFYKDYASLFRNNKELVKSLSPSNSIVASWSWYSHQRLANLPLVRIGEDAHRNPLMQNEKRKNLTILIVGETSRAENFSLNGYPRETNPRLAKDNVVYFPNTASCGTATAVSVPCMFSDMPREHYKEELAQHQEGVLDIIQRAGINVLWNDNDGGCKGACDRVPHQNVTALNLPDQCINGECYDEVLFHGLEEYINNLQGDGVIVLHTIGSHGPTYYNRYPPQFRKFTPTCDTNEIQTCTKEQLVNTYDNTLVYVDYIVDKAINLLKEHQDKFTTSLVYLSDHGESLGENGIYLHGLPYAIAPDSQKQVPMLLWLSEDYQKRYQVDQNCLQKQAQTQHYSQDNLFSTLLGLTGVETKYYQAADDILQTCRRVSE,3.22 ± 0.046 h,6.12 ± 0.22 h,10.7 ± 1.6 h,7.04 ± 1.1 h,6.05 ± 0.36 h,6.41 ± 0.43 h,6.19 ± 0.59 h,6.42 ± 0.21 h,6.03 ± 0.31 h,13 ± 0.68 h,,12.3 ± 0.34 h
MLKRVFLSLLVLIGLLLLTVLGLDRWMSWKTAPYIYDELQDLPYRQVGVVLGTAKYYRTGVINQYYRYRIQGAINAYNSGKVNYLLLSGDNALQSYNEPMTMRKDLIAAGVDPSDIVLDYAGFRTLDSIVRTRKVFDTNDFIIITQRFHCERALFIALHMGIQAQCYAVPSPKDMLSVRIREFAARFGALADLYIFKREPRFLGPLVPIPAMHQVPEDAQGYPAVTPEQLLELQKKQGK [P0AFY2],3.1 ± 0.074 h,5.81 ± 0.24 h,10.9 ± 0.74 h,5.75 ± 0.44 h,6.88 ± 0.82 h,5.72 ± 0.66 h,6.021 ± 0.027 h,5.85 ± 0.23 h,5.92 ± 0.26 h,12.3 ± 0.33 h,,11.6 ± 1.1 h
MLKTIQDKARHRTRPLWAWLKLLWQRIDEDNMTTLAGNLAYVSLLSLVPLVAVVFALFAAFPMFSDVSIQLRHFIFANFLPATGDVIQRYIEQFVANSNKMTAVGACGLIVTALLLMYSIDSALNTIWRSKRARPKIYSFAVYWMILTLGPLLAGASLAISSYLLSLRWASDLNTVIDNVLRIFPLLLSWISFWLLYSIVPTIRVPNRDAIVGAFVAALLFEAGKKGFALYITMFPSYQLIYGVLAVIPILFVWVYWTWCIVLLGAEITVTLGEYRKLKQAAEQEEDDEP [P0A8K8],> 4 h,,,,,,4.46 h,7.67 h,,> 16 h,,
MLKTIRKHGITLALFAAGSTGLTAAINQMTKTTIAEQASLQQKALFDQVLPAERYNNALAQSCYLVTAPELGKGEHRVYIAKQDDKPVAAVLEATAPDGYSGAIQLLVGADFNGTVLGTRVTEHHETPGLGDKIELRLSDWITHFAGKKISGADDAHWAVKKDGGDFDQFTGATITPRAVVNAVKRAGLYAQTLPAQLSQLPACGE,3.07 ± 0.086 h,5.7 ± 0.36 h,10.6 ± 1.6 h,5.83 ± 1.8 h,6.171 ± 0.022 h,5.52 ± 1.2 h,6.06 ± 0.48 h,5.75 ± 0.07 h,5.82 ± 0.13 h,11.9 ± 0.49 h,,11.9 ± 0.64 h
